Results reported in PMC11575404.

Key:
[1] = biological target: SARS-CoV-2 N protein truncation NΔN180, Myc-tagged (SARS-CoV-2) (UniProt P0DTC9); assay: cross-linking
[2] = biological target: SARS-CoV-2 N protein truncation NΔN247, Myc-tagged (SARS-CoV-2) (UniProt P0DTC9); assay: cross-linking

| Substance | stoichiometry N [1] | stoichiometry N [2] |
| --- | --- | --- |
| SARS-CoV-2 N protein truncation NΔN180, Myc-tagged (from UniProt P0DTC9 181-419) (domain or fragment) | 2 | – |
| SARS-CoV-2 N protein truncation NΔN247, Myc-tagged (from UniProt P0DTC9 248-419) (domain or fragment) | – | 2 |
